From the supplement of paper PMC10567573

B1: JUNB (parent)
chain: FVKALDDLHKMNHVTPPNVSLGAT

Variants of: B1
Test: protein stability index of a GFP-peptide fusion (GPS, HEK-293T) (PSI 1-6); higher = more stable
Details: c terminus: a fixed tail appended
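Note: lentivirally expressed fusions sorted by FACS into six bins by GFP to DsRed ratio, PSI derived from sequencing read proportions per bin multiplied by bin number.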

Going from FVKALDDLHKMNHVTPPAVSLGAT [N18A] to FVKALDDLHKMIHVTPPNVSLGAT [N12I], the protein stability index rises from 1.32 to 1.67.

Going from FVKALDDLHKMSHVTPPNVSLGAT [N12S] to FVKALDDLHKMKHVTPPNVSLGAT [N12K], the protein stability index falls from 2.12 to 1.55.

Compared with FVKALDDLHKMPHVTPPNVSLGAT [N12P], FVKALDDLHKMHHVTPPNVSLGAT [N12H] is higher in protein stability index: 2.08 for the first, 2.57 for the second.

First: FVKALDDLHKMFHVTPPNVSLGAT [N12F]
Second: FVKALDDLHKMAHVTPPNVSLGAT [N12A]
The protein stability index of the first is lower: 1.74 for the first, 2.14 for the second.

Compared with FVKALDDLHKMVHVTPPNVSLGAT [N12V], FVKALDDLHKMCHVTPPNVSLGAT [N12C] is higher in protein stability index: 1.67 for the first, 2.34 for the second.

First: FVKALDDLHKMGHVTPPNVSLGAT [N12G]
Second: FVKALDDLHKMDHVTPPNVSLGAT [N12D]
The protein stability index of the first is higher: 2.49 for the first, 1.61 for the second.

Going from FVKALDDLHKMRHVTPPNVSLGAT [N12R] to FVKALDDLHKMLHVTPPNVSLGAT [N12L], the protein stability index rises from 1.56 to 3.23.

Going from FVKALDDLHKMTHVTPPNVSLGAT [N12T] to FVKALDDLHKMEHVTPPNVSLGAT [N12E], the protein stability index rises from 1.8 to 2.01.

Going from FVKALDDLHKMMHVTPPNVSLGAT [N12M] to FVKALDDLHKMYHVTPPNVSLGAT [N12Y], the protein stability index rises from 1.65 to 3.14.

First: FVKALDDLHKMQHVTPPNVSLGAT [N12Q]
Second: FVKALDDDHKMNHVTPPNVSLGAT [L8D]
The protein stability index of the first is lower: 1.58 for the first, 1.86 for the second.

Going from FVKALDDIHKMNHVTPPNVSLGAT [L8I] to FVKALDDQHKMNHVTPPNVSLGAT [L8Q], the protein stability index falls from 2.64 to 1.68.

Compared with FVKALDDPHKMNHVTPPNVSLGAT [L8P], FVKALDDNHKMNHVTPPNVSLGAT [L8N] is lower in protein stability index: 2.31 for the first, 1.93 for the second.

First: FVKALDDKHKMNHVTPPNVSLGAT [L8K]
Second: FVKALDDVHKMNHVTPPNVSLGAT [L8V]
The protein stability index of the first is higher: 2.3 for the first, 1.74 for the second.

First: FVKALDDGHKMNHVTPPNVSLGAT [L8G]
Second: FVKALDDTHKMNHVTPPNVSLGAT [L8T]
The protein stability index of the first is lower: 2.26 for the first, 2.46 for the second.

First: FVKALDDSHKMNHVTPPNVSLGAT [L8S]
Second: FVKALDDHHKMNHVTPPNVSLGAT [L8H]
The protein stability index of the first is higher: 2.39 for the first, 2.26 for the second.

First: FVKALDDCHKMNHVTPPNVSLGAT [L8C]
Second: FVKALDDMHKMNHVTPPNVSLGAT [L8M]
The protein stability index of the first is higher: 1.77 for the first, 1.62 for the second.

Compared with FVKALDDYHKMNHVTPPNVSLGAT [L8Y], FVKALDDRHKMNHVTPPNVSLGAT [L8R] is higher in protein stability index: 1.52 for the first, 1.89 for the second.

Compared with FVKALDDEHKMNHVTPPNVSLGAT [L8E], FVKALDDFHKMNHVTPPNVSLGAT [L8F] is higher in protein stability index: 2.31 for the first, 2.59 for the second.

Compared with FVKALDDLHKMNMVTPPNVSLGAT [H13M], FVKALDDLHKMNEVTPPNVSLGAT [H13E] is higher in protein stability index: 2.06 for the first, 3.33 for the second.

Compared with FVKALDDLHKMNDVTPPNVSLGAT [H13D], FVKALDDLHKMNCVTPPNVSLGAT [H13C] is lower in protein stability index: 1.92 for the first, 1.67 for the second.

First: FVKALDDLHKMNAVTPPNVSLGAT [H13A]
Second: FVKALDDLHKMNPVTPPNVSLGAT [H13P]
The protein stability index of the first is higher: 1.92 for the first, 1.75 for the second.

First: FVKALDDLHKMNYVTPPNVSLGAT [H13Y]
Second: FVKALDDLHKMNKVTPPNVSLGAT [H13K]
The protein stability index of the first is lower: 1.6 for the first, 1.74 for the second.

First: FVKALDDLHKMNNVTPPNVSLGAT [H13N]
Second: FVKALDDLHKMNRVTPPNVSLGAT [H13R]
The protein stability index of the first is lower: 1.54 for the first, 2.4 for the second.

First: FVKALDDLHKMNVVTPPNVSLGAT [H13V]
Second: FVKALDDLHKMNLVTPPNVSLGAT [H13L]
The protein stability index of the first is lower: 1.75 for the first, 2.56 for the second.

Going from FVKALDDLHKMNIVTPPNVSLGAT [H13I] to FVKALDDLHKMNQVTPPNVSLGAT [H13Q], the protein stability index falls from 2.22 to 2.08.

Going from FVKALDDLHKMNTVTPPNVSLGAT [H13T] to FVKALDDLHKMNSVTPPNVSLGAT [H13S], the protein stability index falls from 2.75 to 1.2.

First: FVKALDDLHKMNWVTPPNVSLGAT [H13W]
Second: FVKALDDLHKMNGVTPPNVSLGAT [H13G]
The protein stability index of the first is higher: 2.66 for the first, 1.91 for the second.

First: FVKALDDLHKMNFVTPPNVSLGAT [H13F]
Second: FVKALDDLHKNNHVTPPNVSLGAT [M11N]
The protein stability index of the first is higher: 2.17 for the first, 2.01 for the second.

Going from FVKALDDLHKDNHVTPPNVSLGAT [M11D] to FVKALDDLHKQNHVTPPNVSLGAT [M11Q], the protein stability index rises from 2.29 to 2.63.

First: FVKALDDLHKINHVTPPNVSLGAT [M11I]
Second: FVKALDDLHKANHVTPPNVSLGAT [M11A]
The protein stability index of the first is lower: 2.26 for the first, 2.29 for the second.

First: FVKALDDLHKCNHVTPPNVSLGAT [M11C]
Second: FVKALDDLHKKNHVTPPNVSLGAT [M11K]
The protein stability index of the first is higher: 2.31 for the first, 1.83 for the second.

Going from FVKALDDLHKFNHVTPPNVSLGAT [M11F] to FVKALDDLHKWNHVTPPNVSLGAT [M11W], the protein stability index falls from 2.6 to 2.23.

First: FVKALDDLHKVNHVTPPNVSLGAT [M11V]
Second: FVKALDDLHKPNHVTPPNVSLGAT [M11P]
The protein stability index of the first is higher: 1.7 for the first, 1.4 for the second.

First: FVKALDDLHKENHVTPPNVSLGAT [M11E]
Second: FVKALDDLHKGNHVTPPNVSLGAT [M11G]
The protein stability index of the first is higher: 3.21 for the first, 1.61 for the second.

First: FVKALDDLHKSNHVTPPNVSLGAT [M11S]
Second: FVKALDDLHKTNHVTPPNVSLGAT [M11T]
The protein stability index of the first is higher: 2.11 for the first, 2.06 for the second.

Compared with FVKALDDLHKHNHVTPPNVSLGAT [M11H], FVKALDDLHKYNHVTPPNVSLGAT [M11Y] is lower in protein stability index: 1.94 for the first, 1.29 for the second.

Compared with FVKALDDLHKRNHVTPPNVSLGAT [M11R], FVKALDDLHKLNHVTPPNVSLGAT [M11L] is lower in protein stability index: 2.28 for the first, 1.7 for the second.

Compared with FVKALDDLHDMNHVTPPNVSLGAT [K10D], FVKALDDLHVMNHVTPPNVSLGAT [K10V] is lower in protein stability index: 2.22 for the first, 1.48 for the second.

Going from FVKALDDLHFMNHVTPPNVSLGAT [K10F] to FVKALDDLHRMNHVTPPNVSLGAT [K10R], the protein stability index rises from 1.6 to 2.77.

Going from FVKALDDLHGMNHVTPPNVSLGAT [K10G] to FVKALDDLHEMNHVTPPNVSLGAT [K10E], the protein stability index rises from 1.5 to 2.98.

First: FVKALDDLHHMNHVTPPNVSLGAT [K10H]
Second: FVKALDDLHSMNHVTPPNVSLGAT [K10S]
The protein stability index of the first is higher: 2.13 for the first, 2.11 for the second.

Going from FVKALDDLHIMNHVTPPNVSLGAT [K10I] to FVKALDDLHWMNHVTPPNVSLGAT [K10W], the protein stability index rises from 2.35 to 4.58.

Going from FVKALDDLHMMNHVTPPNVSLGAT [K10M] to FVKALDDLHAMNHVTPPNVSLGAT [K10A], the protein stability index rises from 1.72 to 2.79.

Going from FVKALDDLHNMNHVTPPNVSLGAT [K10N] to FVKALDDLHCMNHVTPPNVSLGAT [K10C], the protein stability index falls from 2.07 to 1.64.

First: FVKALDDLHLMNHVTPPNVSLGAT [K10L]
Second: FVKALDDLHPMNHVTPPNVSLGAT [K10P]
The protein stability index of the first is lower: 1.72 for the first, 2.61 for the second.

Compared with FVKALDDLHTMNHVTPPNVSLGAT [K10T], FVKALDDLHYMNHVTPPNVSLGAT [K10Y] is higher in protein stability index: 2.21 for the first, 2.63 for the second.

Compared with FVKALDDLHQMNHVTPPNVSLGAT [K10Q], FVKALDDLEKMNHVTPPNVSLGAT [H9E] is higher in protein stability index: 1.95 for the first, 2.08 for the second.
